# Laboratory results: the nanobody polyreactivity screen of Harvey et al. (2022)
# Experiment: yeast display, Sf9 membrane polyspecificity reagent, FACS + sequencing; frameworks hold sequencing errors
# Outline: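 Sorting gates, low and high (top ~1%), were placed on anti-HA fluorescence to track expression and on streptavidin fluorescence to track reagent binding. A clone's polyreactivity label is taken from the gate it came out of. The reagent was 10% biotinylated, detergent-solubilized Sf9 membrane, applied for 1 hour at 4 °C to galactose-induced yeast display cells.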
row,Sequence,polyreactivity (PSR sort gate)
1,QVQLVESGGGLVQAGGSLRLSCAASGRTFYSYAMGWYRQAPGKERELVAAITSGDSTNYADSVKGRFTISRDNAKNTVYLQMNSLKPEDTAVYYCAAEYSGWYWYQHYNYWGQGTQVTVSS,high polyreactivity
2,QVQLVESGGGLVQAGGSLRLSCAASGRTFYSYVMGWYRQAPGKEREVVAAIPRSGGSTNYADSVKGRFTISRDNAKNTVYFQMHSRKPEDTAVYYCASRAGRTLRTHYDYWGQGTQGTVSS,high polyreactivity
3,QVQLVESGGGLVQAGGSLRLSCAASGRTFYTNAMGWYRQAPGKERELVAAITGDGTSTYYADSVKGRFTISRDNAKNTVYLEMNSLKPEDTAVYYCNATLPDYWPYYYYQGGDDYWGQGTQVTVSS,low polyreactivity
4,QVQLVESGGGLVQAGGSLRLSCAASGRTFYTNAMGWYRQAPGKERELVAGISWGDGNTYYADSVKGRFTISRDNAKNTVYLQMNSLKPEDTAVYYCAVTYIILWSYSHTEFDYWGQGNQVTVSS,low polyreactivity
5,QVQLVESGGGLVQAGGSLRLSCAASGRTFYTNAMGWYRQAPGKERELVAVISRGGTTYYADSVKGRFTISRDNEKNTVYIQMNSLKPEDTAFYYCAIQSPSGDSSSQMGSWGQGTQVTVSS,low polyreactivity
6,QVQLVESGGGLVQAGGSLRLSCAASGRTFYTNGMGWYRQAPGKEREFVAGITYRGGGTYYADSVKGRFTISRDNAKNTVYLQMNSLKPEDTAVYYCNTRWILGRRFYYWGQGTQVTVSS,high polyreactivity
7,QVQLVESGGGLVQAGGSLRLSCAASGRTFYTYAMGWNRQAPGKEREFVAAITGSGGSTYYADSVKWRFTISRDNAKNTVYLQMTSLKPDDRAVYYCNAGSPGDVWYYYWGQGTQVTVSS,low polyreactivity
8,QVQLVESGGGLVQAGGSLRLSCAASGRTFYTYAMGWYRQAPGKERELVAAISSDGSTYYADSVKGRFTISRDNAKNTVYLQMNSLKPEDTAVYYCAADYSPWYWGYTYYYWGQGTQVTVSS,high polyreactivity
9,QVQLVESGGGLVQAGGSLRLSCAASGRTFYVNAMGWYRQAPGKERELVAAINTIGGRTYYADSVKGRFTISRDNAKNTVYLQMNSLKTEDTAVYYCAARQVSRWGYDYWGQGTQVTVSS,high polyreactivity
10,QVQLVESGGGLVQAGGSLRLSCAASGRTFYVYAMGWYRQAPGKERELVAAISWGGGSTYYADSVKGRFTISRDNAKNTVYLQMNSLKPEDTAVYYFAAESWTSGTNVPVWYYGYSWGQGTQVTVSS,low polyreactivity
11,QVQLVESGGGLVQAGGSLRLSCAASGRTFYVYAMGWYRQAPGKERELVAAISWRGGSTYYADSVKGRFTISRDNAKNTVYLQMNSLKPEDTAVYYCATAGGDWYGVDYWGQGTQVTVSS,low polyreactivity
12,QVQLVESGGGLVQAGGSLRLSCAASGRTFYVYAMGWYRQAPGKERELVAAITASGGSTYYADSVKGRFTLSRDNAKNTVYLQMNSLKPEDTAVYYCAARVVTLVRGVGYNYWGQGTQVTVSS,high polyreactivity
13,QVQLVESGGGLVQAGGSLRLSCAASGRTFYVYAMGWYRQAPGKERELVAAITYTGGDTYYADSVKGRFTISRDNAKNTVYLQMNSLKPEDTAVYYCAADFGPYYRFDYWGQGTQVTVSS,low polyreactivity
14,QVQLVESGGGLVQAGGSLRLSCAASGRTFYVYAMGWYRQAPGKERELVATITSRGGRTYYADSVKGRFTISRDNAKNTVYLQMNSLKPEDTAVDYCNAAWWKVSYVRQKYFYWGQGTQVTVSS,high polyreactivity
15,QVQLVESGGGLVQAGGSLRLSCAASGRTFYVYAMGWYRQAPGKVSELVAAISASGGRTYYADSVKGGFTISRDNAKNTVYLQMNSLKPEDTAVYYCAAEGRRGGKDYDYWGQGTQVTVSS,high polyreactivity
16,QVQLVESGGGLVQAGGSLRLSCAASGRTFYVYTMGWYRQAPGKERELVAGISYSGGSTYYADSVKGRFTISRDNAKNTVYLQMNSLKPEDTAVYYCNRGLAARVGRGDYWGQGTQVTVSS,low polyreactivity
17,QVQLVESGGGLVQAGGSLRLSCAASGRTFYWNAMGWYRQAPGKERELVAAITRNGGSTYYADSVKGRFTISRDNAKNTVYLQMNSLKPEDTAVYYCAARKRYGAGYDYWGQGTQVTVSS,high polyreactivity
18,QVQLVESGGGLVQAGGSLRLSCAASGRTFYWYAMGWYRQAPGKERELVAAIRWSTGSTYYADSVKGRFTISRDNAKNTVYLQMNSLKPEDTAVYYCAATRPSWRYNYWGQGTQVTVSS,high polyreactivity
19,QVQLVESGGGLVQAGGSLRLSCAASGRTFYWYTMGWYRQATGKERELVAAISIGGITSYADSVKGRFTISRDNAKNTVYLQMNSLKPEDTAVYYCAAPLSYKNVKYDYWGQGTQVTVSS,low polyreactivity
20,QVQLVESGGGLVQAGGSLRLSCAASGRTFYYNAMGWYRQAPGKERELVAAISGRGGSTYYADSVKGRFTISRDNAKNTVYLQMNSLKPEDTAVYYCNAVRYKYTGRFGYWGQGTQVTVSS,high polyreactivity
21,QVQLVESGGGLVQAGGSLRLSCAASGRTFYYNAMGWYRQAPGKERELVAAISSGDSTYYADSVKGRFTISRDNAKNTVYLQMNSLKPEDTAVYYCNKYVAYDYWGQGTQVTVSS,low polyreactivity
22,QVQLVESGGGLVQAGGSLRLSCAASGRTFYYNAMGWYRQAPGKERELVAAISWSGGSTYYADSVKGRFTISRDNAKNTVYLQMNSLKPEDTAVYYCAAGAYSYRKYRSYDYWGQGTQVTVSS,high polyreactivity

row,Sequence,polyreactivity (PSR sort gate)
1,QVQLVESGGGLVQAGGSLRLSCAASGRTFYYNAMGWYRQAPGKERELVAVITRGSTYYADSVKGRFSISRDNAKNTVYLQMKSLKPEDTAVYYCCKYRHYHRGYDYWGQGTQVTVSS,high polyreactivity
2,QVQLVESGGGLVQAGGSLRLSCAASGRTFYYNAMGWYRQAPGKEREMVADINWSGVRTYYADSVKGRFTISRDNAKNTVYLQMNSLKPEDTAAYYCAAERLLYKHYEEDYWGQGTQVTVSS,low polyreactivity
3,QVQLVESGGGLVQAGGSLRLSCAASGRTFYYNAMGWYRQAPGKERQLVAAITSSGSTYYADSVKGRFTISRDNAKNTVYLQMNSLKPEDTAVYYCASVTSYSHYRLSGWYRFEYWGQGTQVTVSS,high polyreactivity
4,QVQLVESGGGLVQAGGSLRLSCAASGRTFYYNTMGWYRQAPGKERELVAAITRGGSTYYADSVKGRFTISRVNAKNTVYLQMNSLKPEETAVYYCNAPRYLRRYVKDHDYWGEGTQVTVSS,high polyreactivity
5,QVQLVESGGGLVQAGGSLRLSCAASGRTFYYYAMGWNRQAPGTERELVAAITTDGGNTYYADSVKGRFTISRDTAKNTVYLQMNSLKPEDTAVYYCATDGYEYTDYGSSGYDYWGQGTQVTVSS,low polyreactivity
6,QVQLVESGGGLVQAGGSLRLSCAASGRTFYYYAMGWSRQAPGKERELVAAIRWRATSTFYADSVKGRFTISRDNAKNTVYLQMNSLKPEDSAVYYCATTGGYRLQAQKYYYWGQGTQVTLSS,high polyreactivity
7,QVQLVESGGGLVQAGGSLRLSCAASGRTFYYYAMGWYIPAPGKERELVARISYSGSNTYYADSVKGRFTISRDTAKNTVYLQMNSLKREVTAGYYCAAGYLVWRDSATLDYWGQGTQVTVSS,high polyreactivity
8,QVQLVESGGGLVQAGGSLRLSCAASGRTFYYYAMGWYRPAPGKERELVAAIRRSGSSTYYADSVKGRFTISRDNAKNTVYLQMNSLKPEDTAVYYCAAAVYQRARYYWGQGTQVTVSS,high polyreactivity
9,QVQLVESGGGLVQAGGSLRLSCAASGRTFYYYAMGWYRQAPCKERELVSAITTDGGNTYYADSVKGRFTISRDNAKNTVYLQMNSLKPEDTAVYYCATDGYEYTDYGSSGYDYWGQGTQVTVSS,low polyreactivity
10,QVQLVESGGGLVQAGGSLRLSCAASGRTFYYYAMGWYRQAPGKERELVAAISGSGGSTYYADSVKGRFTISRDIAKNTVYLQMNSLKPEDTAVYYCAASGPRRRYDYWGQGTQVTVSS,high polyreactivity
11,QVQLVESGGGLVQAGGSLRLSCAASGRTFYYYAMGWYRQAPGKERELVAAISKSGGSTYYADSVKGRFTISRDNAKNTVYLQMNSLKPEDTAVYYCAALTTHAPHSYNYWGQGTQVTVSS,low polyreactivity
12,QVQLVESGGGLVQAGGSLRLSCAASGRTFYYYAMGWYRQAPGKERELVAAISWSGGSTYYADSVKGRFTISRDNAKNTVYLQMNSLKPEDTAVYYCAARLPENSFGLYYYWGQGTQVTVSS,high polyreactivity
13,QVQLVESGGGLVQAGGSLRLSCAASGRTFYYYAMGWYRQAPGKERELVARISRGGSTNYADSVKGRFTISRDNAKNTVYLQMNILKPEDTAVYYCAKTISYTGRFWGYDYWGQGTQVTVSS,high polyreactivity
14,QVQLVESGGGLVQAGGSLRLSCAASGRTFYYYAMGWYRQAPGKERELVAVISWDDGSTYYADSVKGRFTISRDNAKNTVYLQMNSLKPEVTAVYYCAAYDYLDYADDYWGQGTQVTVSS,low polyreactivity
15,QVQLVESGGGLVQAGGSLRLSCAASGRTFYYYGRVWYRQAPGKERDFVAAITRSGGRTYYADSVKGRFTISRDNAKNTVYLQMNSLKPEDTAVYYCATGGYYRYSGLSVYGYPYEYWGQGTQVTVSS,high polyreactivity
16,QVQLVESGGGLVQAGGSLRLSCAASGRTFYYYTMGWYRQPPRKEREFVAAISWSGGSKYYADSVKGRFTISRDNAKNTVYLQMNSLIPEDTAVYYCNARSFATGSKVPARGYWVQGTQVTVSS,high polyreactivity
17,QVQLVESGGGLVQAGGSLRLSCAASGRTFYYYYTMGWYRQPPGKETELVAAISRSGSTNYADSVKGRFTISRDNAKNTVYLQMNSLKPEDTAVYYCARSYRSDGSRFGYWGQGTQVTVSS,low polyreactivity
18,QVQLVESGGGLVQAGGSLRLSCAASGRTIASYAMGWYRQAPGKERELVAAITSGGSTYYADSVKGRFTISRDNAKNTVYLQINSLKPEDTAVYYCARKHAIWRGYDYWGQGNQVTVSS,low polyreactivity
19,QVQLVESGGGLVQAGGSLRLSCAASGRTIASYAMGWYRQAPGKERELVAAITSGGSTYYADSVKGRFTISRDNAKNTVYLQMNSLKPEDTAVYYCAAYVRPAYYAIHVDYWGQGTQVTVSS,low polyreactivity
20,QVQLVESGGGLVQAGGSLRLSCAASGRTIGPYVMGWYRQAPGKERELVAAITYIGDRTYYADSVKGRFTISRDNAKNTVYLQMNSLKPEDTAVYYCNADFFSRWGYRYMDYWGQGTQVTVSS,low polyreactivity
21,QVQLVESGGGLVQAGGSLRLSCAASGRTIGTYAMGWYRQAPGTERELVAAIRSNAGSTYYADSVKGRFTISRDNGKNTVYLQMNSLKPEDTAVYYCAKSYRSSRRYNYWGQGTQVTVSS,high polyreactivity
